According to patent US20140322163A1:
Substitutions are numbered along the chain they refer to. Numbers in names are those of the source.

Target: HIV-1 Env-pseudoviruses (neutralization panels)
Experiment: cell-based or functional assay

B1: VRC07 G54H heavy chain complemented with VRC01 light chain (antibody, V domains shown)
VH: QVRLSQSGGQMKKPGDSMRISCRASGYEFINCPINWIRLAPGKRPEWMGWMKPRHGAVSYARQLQGRVTMTRDMYSETAFLELRSLTSDDTAVYFCTRGKYCTARDYYNWDFEHWGQGTPVTVSS
VL: EIVLTQSPGTLSLSPGETAIISCRTSQYGSLAWYQQRPGQAPRLVIYSGSTRAAGIPDRFSGSRWGPDYNLTISNLESGDFGVYYCQQYEFFGQGTKVQVDI
Q: With B1 as the binder, how does the fold improvement of neutralization over wild type VRC07 (IC50), six-virus panel, TZM-bl read?
A: 2.3 fold

Q: And the fold improvement of neutralization over wild type VRC07 (IC80), six-virus panel, TZM-bl?
A: 2.5 fold

Q: What about the fold increase of neutralization over VRC01 of the same binder?
A: 7 fold

Q: And the fold increase of neutralization over VRC07?
A: 2.5 fold

Q: What about the fold increase of neutralization potency compared to VRC07 heavy chain with VRC01 light chain of the same binder?
A: > 2 fold

B2: VRC07 G54W heavy chain complemented with VRC01 light chain (antibody, V domains shown)
VH: B1 VH with H55W
VL: B1 VL
Q: B2 was tested. Which fold increase of neutralization potency over VRC01 did it give?
A: 13 fold

Q: What about the fold increase of neutralization potency over VRC07 of the same binder?
A: 4.8 fold

Q: And the neutralization potency relative to VRC07, panel of 7-12 HIVs?
A: > 2 fold

Q: What about the neutralization potency relative to mature VRC01, panel of 7-12 HIVs of the same binder?
A: > 8 fold
